In patent publication US20020081280A1:
Values joined by “and” are separate entries in the source; they are usually repeats but may differ in a detail not shown here. Equal entries are not always repeated.

Legend:
[1] = biological target: cellular integrins on HUVEC cells; assay: 125I-Ad5lucRGD binding to HUVEC cells at 4 °C, penton base at 100 µg/ml; competitor Ad5lucRGD
[2] = biological target: coxsackievirus and adenovirus receptor (CAR) on human cells (human) (UniProt P78310); assay: cell-based or functional assay
Sequence of UniProt P78310 (P78310 20-365): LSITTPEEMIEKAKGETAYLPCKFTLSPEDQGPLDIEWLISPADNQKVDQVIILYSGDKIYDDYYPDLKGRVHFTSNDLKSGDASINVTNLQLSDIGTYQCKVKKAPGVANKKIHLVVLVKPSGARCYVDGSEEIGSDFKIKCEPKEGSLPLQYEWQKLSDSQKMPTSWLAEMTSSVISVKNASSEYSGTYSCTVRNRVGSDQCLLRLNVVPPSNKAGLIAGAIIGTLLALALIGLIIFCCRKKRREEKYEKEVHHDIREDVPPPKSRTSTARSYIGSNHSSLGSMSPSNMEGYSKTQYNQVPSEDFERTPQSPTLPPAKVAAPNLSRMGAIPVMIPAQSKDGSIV

Substance | percent decrease of bound virus radioactivity [1] [%] | blockade of luciferase gene transfer by knob competition, HeLa and SCCHN cell lines (FaDu, SCC-4, SCC-25) [2] [%] | gene transfer to SKOV3.ipl cells blocked by fiber knob [2] [%] | luciferase activity in 293 cells blocked by recombinant knob protein (100 µg/ml) [2] [%] | luciferase activity in SKOV3.ipl cells blocked by excess fiber knob [2] | luciferase activity in ovarian cancer ascites cells blocked by excess fiber knob [2] [%] | reduction of luciferase activity in CaOV-3 cells by fiber knob blockade, dose 3x10^6 PFU [2] [%] | reduction of luciferase activity in UCI-101 cells by the fiber knob block [2]
recombinant human adenovirus serotype 2 penton base protein, expressed in Sf9 cells (from UniProt P03276 1-571) | 25 |  |  |  |  |  |  | 
AdCMVLuc virions (E1-deleted Ad5 vector with unmodified wild-type fibers) (from UniProt P11818 1-581) |  | > 90 | > 90 | 85 to 93 | 82% and 91% | 90 | 55 | 94% and 97%
